Assay: yeast display, Sf9 membrane polyspecificity reagent, FACS + sequencing; frameworks hold sequencing errors
How it was run: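 Nanobodies came from a synthetic yeast display library in Saccharomyces cerevisiae BJ5465, induced with galactose for 36–48 hours and stained for 1 hour at 4 °C with 10% biotinylated, detergent-solubilized Sf9 membrane reagent. Cells were enriched on streptavidin microbeads and then FACS-sorted, with low and high (top ~1%) gates set on anti-HA fluorescence for expression and streptavidin fluorescence for reagent binding. Each polyreactivity label reflects the gate a clone came from. Genes were amplified by colony PCR, sequenced by MiSeq 2 × 250 and filtered by CDR length.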

| Sequence | polyreactivity (PSR sort gate) |
| --- | --- |
| QVQLVESGGGLVQAGGSLRLSCAASGSIFIYYAIGWYRKAPGKERELVAAIDRSGGNTYYADSVKGRFTISRDNAKNTVYLQMNSLKPEDTAVYYCAALVHRRVQYDYWGQGTQVTVSS | high polyreactivity |
| QVQLVESGGGLVQAGGSLRLSCAASGSIFIYYAMGWYRQAPGKEMELVAAISSSGGSTYYADSVKGRFTISRDNAKNTVYLQMNSLKPEDTAVYYCAAAYGGRLRYTAGYYWGQGTQVTVSS | high polyreactivity |
| QVQLVESGGGLVQAGGSLRLSCAASGSIFIYYAMGWYRQAPGKERELVAAIDYSGDSTYYADSVKGRFTISRDNAKNTVYLQMNSLKPEDTAVYYCAVYYAGWGDYWGQGTQVTVSS | low polyreactivity |
| QVQLVESGGGLVQAGGSLRLSCAASGSIFIYYAMGWYRQAPGKERELVAAISWSGGDTYYADSVKGRFTISRDNAKNTVYFHMNILKPEDTAVYYCNADYYPYYPYTAWDTVLTHDEYWGQGTQVTVSS | low polyreactivity |
| QVQLVESGGGLVQAGGSLRLSCAASGSIFIYYAMGWYRQAPGKERELVAAISWSGGDTYYADSVKGRFTISRDNAKNTVYLQMNSLKPEDTAVYYCNADYDPYYPYTAWDTVLTHDEYWGQGTQVTVSS | low polyreactivity |
| QVQLVESGGGLVQAGGSLRLSCAASGSIFIYYAMGWYRQAPGKERELVAGININGGSTYYADSVKGRFTISRDNAKNTVYLQMNSLKPEDTAVYYCAADELWWTYWDFVTNWYQRDYWGQGTQVTVSS | low polyreactivity |
| QVQLVESGGGLVQAGGSLRLSCAASGSIFIYYSMGWYRQAPGKERELVAAISWSGGDTYYADSVKGRFTISRDNAKNTVYLQMNSLKPEDTAVYYCAADSVTRPAGDYWGQGTQVTVSS | low polyreactivity |
| QVQLVESGGGLVQAGGSLRLSCAASGSIFKDNAMGWYRQAPGKERELVAAITSGASTNYADSVKGRFTISRDNAKNTVYLQMNSLKPEDTAVYYCAAVLAGGVYWVVHYDYWGQGTQVTVSS | low polyreactivity |
| QVQLVESGGGLVQAGGSLRLSCAASGSIFKEYAMGWYRQAPGKERELVAAITGSGGSTFYADSVKGRFTISRDNAKNTVYLQMNSLIPEDTAVYYCNARRPAKSRYRHDYWGQGTQVTVSS | high polyreactivity |
| QVQLVESGGGLVQAGGSLRLSCAASGSIFKEYTMGWYRQAPGKERELVAAITWSDGSTDYADSVKGRFTISRDNAKNTVYLQMNSLKPEDTAVYYCAADYDYPYFWSSGYIDDYWGQGTQVTVSS | low polyreactivity |
| QVQLVESGGGLVQAGGSLRLSCAASGSIFKFNTMGWYRQAPGKERELVASITRVGSTYYADSVKGRFTISRDNAKNTVYLQMNSLKPEDTAVYYCAARFLYYTYKTFRTYDYWGQGTQVSVSS | high polyreactivity |
| QVQLVESGGGLVQAGGSLRLSCAASGSIFKFYTMGWYIQAPGKERELVATITSGGRTNYADSVKGRFTISPDNAKNTVYLQMNTLKPEDTAVYYCAATWLRVKYRFKGYDYWGQGTQVTVSS | high polyreactivity |
| QVQLVESGGGLVQAGGSLRLSCAASGSIFKFYTMGWYRQAAGKEWELVATISRSGGGTFYADSVKGRFTISRDNAKNTVYLQMNSLKPEDTAVYYCAADPAFTHYPYGYGYWGQGTQVTVSS | low polyreactivity |
| QVQLVESGGGLVQAGGSLRLSCAASGSIFKGYAMGWYRQAPGKERELVAAITIDGSTYYADSVKGRFTISRDNAKNTVYLQMNSLKPEDTAVYYCAAVYLWYGSWPLHFAAYDYWGQGTQVTVSS | low polyreactivity |
| QVQLVESGGGLVQAGGSLRLSCAASGSIFKGYAMGWYRQAPGKERELVAAITYSGGGTYYADSVKGRFTISRDNAKNTVYIQMNILKPEDTAVYYCNADRYYPDDLSDGVGTYDYWGQGTQVTVSS | low polyreactivity |
| QVQLVESGGGLVQAGGSLRLSCAASGSIFKGYAMGWYRQAPGKERELVASITSSGASTYYADSGKGRFTISRDNAKNTVYLHMNSLKPEDTAVYYCATDHESVRVLVSSTSDYDYWGQGTQVTVSS | low polyreactivity |
| QVQLVESGGGLVQAGGSLRLSCAASGSIFKHNDMGWYRQAPGKERELVAAISRSGGSTYYADSVKGRFTISRDNAKNTVYLQMNSLKPEDTAVYYCAKDGVGAPSTYNYWGQGTQVTVSS | high polyreactivity |
| QVQLVESGGGLVQAGGSLRLSCAASGSIFKKYAKGWYIQAPGKERELVAAISKSGGSTYYADSVKGRFTISRDNAKTTVYLQMNSLKPEDTAVYYCAAAAGGSAYWDYDYWGQGTQVTVSS | low polyreactivity |
| QVQLVESGGGLVQAGGSLRLSCAASGSIFKKYAMVWYRQAPGKERELVAAITRGTYYADSVKGRFTISRDNAKNTVYLQMNSLKPEDTAVYFCNREYWGRGYYRVRGEYDYWGQGTQVTVSS | low polyreactivity |
| QVQLVESGGGLVQAGGSLRLSCAASGSIFKPYAMGWSRQAPGKERELVAAISRSGSTYYADSVKGRFTISRDNAKNTVYLQMNSLKPEDTAVYYCAKDVRPNYYAAFNYWGQGTQVTVSS | low polyreactivity |
| QVQLVESGGGLVQAGGSLRLSCAASGSIFKPYAMGWYRQAPGKERELVAAISRSGSTYYADSVKGRFTISRDNAKNTVYLQMNSLKPEDTAVYYCAKDVRPNYYAAFNYWGQGTQVTVSS | low polyreactivity |
| QVQLVESGGGLVQAGGSLRLSCAASGSIFKPYAMGWYRQAPGKERELVAAITRSGGSTYYADSVKGRFTISRDKAKNTVYLQMNSLKPEDTAVYYCAAGNAPYFRYGSKKYGYWGQGTQVTVSS | high polyreactivity |

| Sequence | polyreactivity (PSR sort gate) |
| --- | --- |
| QVQLVESGGGLVQAGGSLRLSCAASGSIFKPYAMGWYRQAPGKERELVARISWSTGRTYYADSVKGRFTISRDNAKNTVYLQMNSLKPEDTEVYDCDAAVAVRYGYWGQGTQVTVSS | high polyreactivity |
| QVQLVESGGGLVQAGGSLRLSCAASGSIFKQYAMGWYRQAPGKERELVAAITWRGTGTYYADSVKGRFTISRDNAKNTVYLQMNSLKPEDTAVYYCAAKWYRRTYGYLPYTGIVNYDYWGQGTQVTVSS | high polyreactivity |
| QVQLVESGGGLVQAGGSLRLSCAASGSIFKRNAMGWYRQAPGKERELVAAIRVNGGITYYADSVKGRFTISRDNAKNTVFLQMNSLKPEDTSVYYCAVYSRQGLGYWGQGTQVTVSS | high polyreactivity |
| QVQLVESGGGLVQAGGSLRLSCAASGSIFKSNAMGWYRQAPGKERELVAAISNGGITNYADSVKGRFTISRDNAKNTVYLQMNSLKPEDTAVYYCATSDVREIWVDYWGQGTQVTVSS | low polyreactivity |
| QVQLVESGGGLVQAGGSLRLSCAASGSIFKTYAMGWYRQAPGKERELVAAITSGVSTNYADSVKGRFTISRDNAKNTVYLQMNSLKPEDTAVYYCNVDTSSPSRRDYDYWGQGTQVTVSS | low polyreactivity |
| QVQLVESGGGLVQAGGSLRLSCAASGSIFKVYAMGWYRQAPGKEREFVAAITSSDSNTNYADSVKGRFTISRDNAKNTDYLQMNSLKPEDTAVYYCNARIYTRRYVPHYGFNYWGQGTQVTVSS | low polyreactivity |
| QVQLVESGGGLVQAGGSLRLSCAASGSIFKVYAMGWYRQAPGKEREFVAAITSSDSNTNYADSVKGRFTISRDNAKNTVYLQMNSLKPEDTAVYYCNARIYTRRYVPHYGFNYWGQGTQVTVSS | low polyreactivity |
| QVQLVESGGGLVQAGGSLRLSCAASGSIFKYNDMGWYRQAPGKERELVAAITSDSSTYYADSVKGRFTISRDNAKNTVYLQMNSLKPVDTAVYYCAADTTGFTTYAYWYDYWGQGTQVTVSS | low polyreactivity |
| QVQLVESGGGLVQAGGSLRLSCAASGSIFKYNTMGWYRQAPRKERELVAAINGGGSTYYADSVKGRFTISRDNAKNTVYLLMNSLKPEDTAVYYCNARQWYWESPDDYWGQGTQVTVSS | low polyreactivity |
| QVQLVESGGGLVQAGGSLRLSCAASGSIFKYYAMGWYRQAPGKERELVAAISRSGSNTYYADSVKGRFTISRDNPKNTVYLQMNSLKPEDTAVYYCAAVKGPERPTSPYDYWGQGTQVTVSS | high polyreactivity |
| QVQLVESGGGLVQAGGSLRLSCAASGSIFKYYAMGWYRQAPGKERELVAAISSGGITNYADSVKGRFTISRDNAKNTVYLQMNSLKPEDTAVYYCAARDYVRFGLYDYDYWGQGTQVTVSS | low polyreactivity |
| QVQLVESGGGLVQAGGSLRLSCAASGSIFKYYAMGWYRQATGKERELVAAISSGGSTKYADSVKGRFTITRDNAKNTVYLQMNSLKPEDTAVYYCAARDPSRHARRAYDYWGQGTQVTVSS | low polyreactivity |
| QVQLVESGGGLVQAGGSLRLSCAASGSIFLANAMGWYRQAPGKERELVAGISSSVTTNYADSVKGRFTISRDNAKNTVYLQMNSLKPEDTAVYYSNAVYGVYDFNYWVQGTQVTVSS | low polyreactivity |
| QVQLVESGGGLVQAGGSLRLSCAASGSIFLDNAMGWYRQAPGKERELVAAISKSGTRTYYADSVKGRFTISRDNAKTTVYLQMNSLKPEDTAVFYCNVVPKQAKRVELIGYYYWGQGTQVTVSS | high polyreactivity |
| QVQLVESGGGLVQAGGSLRLSCAASGSIFLDYAMGWYRQAPGKERELVATITSGSSTYADSVKGRFTISRDNAKNTVYLQMNSLKPEDTAVYYCNVKLIVRYWNPSPYDYWGQGTQVTVSS | low polyreactivity |
| QVQLVESGGGLVQAGGSLRLSCAASGSIFLEYTMGWYSQAPGKECVLVAAITSGGSTKYADSVKGRFTISRDTAKNTVYLQMNILKPEDTAVYYCNARHYSREFDYWGQGTQVTVSS | low polyreactivity |
| QVQLVESGGGLVQAGGSLRLSCAASGSIFLFNTMGWYRQAPGKERELVAVISRGGITYYADSVKGRFTISRDNAKNTVYLQMNSLKPEDTAVYYCAADGGYWSQYDYWGQGTQVTVSS | low polyreactivity |
| QVQLVESGGGLVQAGGSLRLSCAASGSIFLGYAMGWYRQAPGKERELVAAITSGGSTNYADSVKGRFTISRDNAKNTVYLQMNSLKPEDTAVYYCAAKGEWSLVYTDYDYWGQGTQVTVSS | low polyreactivity |
| QVQLVESGGGLVQAGGSLRLSCAASGSIFLGYTMGWYRQAPGKERELVAAINSSGGSTYYADSVKGRFTISRDNAKNTVYLQMNSLKAEDTAVYYCADANSILLFDSWGQGTQVTVSS | low polyreactivity |
| QVQLVESGGGLVQAGGSLRLSCAASGSIFLIYAMGWYRQAPGKERELVAAIDWGGGANTYYADSVKGRFTISRDNAKNTVYLQMNSLKPEDTAVYYCAVDSYTSGYEYWGQGTQVTVSS | low polyreactivity |
| QVQLVESGGGLVQAGGSLRLSCAASGSIFLIYAMGWYRQAPGKERELVAAISSGGSTYYADSVKGRFTISRDNAKNTVYLQMNSLKPEDTAVYYCAARYVERHTDYYYWGQGTQVTVSS | low polyreactivity |

Source: the nanobody polyreactivity screen of Harvey et al. (2022)
